Laboratory results taken from PMC12530519.

Biological target: Ty1c CA(F323S) (S. cerevisiae)
Assay: SEC-MALS; individual proteins, 12.5-200 µM, Superdex INCREASE 200 10/300 GL at 298 K, 50 mM Tris-HCl, 800 mM NaCl, 0.5 mM TCEP, 3 mM NaN3, pH 8.5

- stoichiometry N: 2
Substance: Ty1c CA(F323S) (domain or fragment)
